Data set [1] concerns the molecule itself. Kind of data set: MST; 0.5 μM FITC-labelled Ire1-LD titrated with unlabelled Ire1-LD; HMK buffer with 1 mM TCEP or 5 mM DTT; apparent dimerization constant (dimer to monomers); no substrate peptide.
Data set [2] deals with the molecule itself. Briefly: native MS; 5 μM Ire1-LD sprayed from 100 mM ammonium acetate at pH 6.8; no substrate peptide.
The data set “turbidity (OD at 400 nm)” concerns the molecule itself. Briefly: turbidity (OD at 400 nm).
The data set “co-sedimentation” concerns the molecule itself. Kind of data set: co-sedimentation.

“And” between values parts separate entries of the source, which are not always exact repeats. Equal entries are not always repeated.

Broadly, the stoichiometry N is the number of molecules, sites or subunits per partner or assembly.

B1: human Ire1α luminal domain (aa 24–449), wild type (domain or fragment, UniProt O75460 24-449, looked up)
chain: STVTLPETLLFVSTLDGSLHAVSKRTGSIKWTLKEDPVLQVPTHVEEPAFLPDPNDGSLYTLGSKNNEGLTKLPFTIPELVQASPCRSSDGILYMGKKQDIWYVIDLLTGEKQQTLSSAFADSLCPSTSLLYLGRTEYTITMYDTKTRELRWNATYFDYAASLPEDDVDYKMSHFVSNGDGLVVTVDSESGDVLWIQNYASPVVAFYVWQREGLRKVMHINVAVETLRYLTFMSGEVGRITKWKYPFPKETEAKSKLTPTLYVGKYSTSLYASPSMVHEGVAVVPRGSTLPLLEGPQTDGVTIGDKGECVITPSTDVKFDPGLKSKNKLNYLRNYWLLIGHHETPLSASTKMLERFPNNLPKHRENVIPADSEKKSFEEVINLVDQTSENAPTTVSRDVEEKPAHAPARPEAPVDSMLKDMATIIL
modifications: FITC-labelled for the copy held at fixed concentration in MST and for fluorescence polarisation; unlabelled elsewhere
notes: human Ire1α luminal domain (Ire1-LD), aa 24-449 of UniProt O75460; Cloned into the pET His6 TEV LIC vector (Addgene 29653); 15N- or 13C,15N-labelled for NMR; also called Ire1-LD; WT Ire1-LD; source: E. coli BL21 (DE3), purified (HisTrap HP nickel column, dialysis)
With B1, in data set [1], the Kd was 500 ± 170 nM. The “stoichiometry N” value in data set [2] was 2 and 4.

B2: human Ire1α luminal domain (aa 24–449), 359WLLI362 to GSSG variant (domain or fragment, UniProt O75460 24-449, looked up)
chain: STVTLPETLLFVSTLDGSLHAVSKRTGSIKWTLKEDPVLQVPTHVEEPAFLPDPNDGSLYTLGSKNNEGLTKLPFTIPELVQASPCRSSDGILYMGKKQDIWYVIDLLTGEKQQTLSSAFADSLCPSTSLLYLGRTEYTITMYDTKTRELRWNATYFDYAASLPEDDVDYKMSHFVSNGDGLVVTVDSESGDVLWIQNYASPVVAFYVWQREGLRKVMHINVAVETLRYLTFMSGEVGRITKWKYPFPKETEAKSKLTPTLYVGKYSTSLYASPSMVHEGVAVVPRGSTLPLLEGPQTDGVTIGDKGECVITPSTDVKFDPGLKSKNKLNYLRNYGSSGGHHETPLSASTKMLERFPNNLPKHRENVIPADSEKKSFEEVINLVDQTSENAPTTVSRDVEEKPAHAPARPEAPVDSMLKDMATIIL
notes: human Ire1α luminal domain (Ire1-LD), aa 24-449 of UniProt O75460, with WLLI 359-362 replaced by GSSG at the oligomerisation interface; Methods and one legend print 358WLLI362; also called 358WLLI362 to GSSG; source: E. coli BL21 (DE3), expressed overnight at 20°C, purified (HisTrap HP nickel column)
Consider B2, for which the binding result in the data set “turbidity (OD at 400 nm)” is given as “binds”.

B3: human Ire1α luminal domain (aa 24–449), 315LL316 to DA variant (domain or fragment, UniProt O75460 24-449, looked up)
chain: STVTLPETLLFVSTLDGSLHAVSKRTGSIKWTLKEDPVLQVPTHVEEPAFLPDPNDGSLYTLGSKNNEGLTKLPFTIPELVQASPCRSSDGILYMGKKQDIWYVIDLLTGEKQQTLSSAFADSLCPSTSLLYLGRTEYTITMYDTKTRELRWNATYFDYAASLPEDDVDYKMSHFVSNGDGLVVTVDSESGDVLWIQNYASPVVAFYVWQREGLRKVMHINVAVETLRYLTFMSGEVGRITKWKYPFPKETEAKSKLTPTLYVGKYSTSLYASPSMVHEGVAVVPRGSTLPDAEGPQTDGVTIGDKGECVITPSTDVKFDPGLKSKNKLNYLRNYWLLIGHHETPLSASTKMLERFPNNLPKHRENVIPADSEKKSFEEVINLVDQTSENAPTTVSRDVEEKPAHAPARPEAPVDSMLKDMATIIL
notes: human Ire1α luminal domain (Ire1-LD), aa 24-449 of UniProt O75460, with LL 315-316 replaced by DA; source: E. coli BL21 (DE3), purified (HisTrap HP nickel column)
For the protein B3, in “co-sedimentation”, the binding result is given as “binds”.
